Reference: patent publication US20240392036A1 (UNIVERSITEIT GENT, published 2024)

T1: porcine kidney aminopeptidase N (APN), purified (Sigma) (porcine (Sus scrofa), UniProt P15145 33-963, biotinylated (1:3 ratio) when used as ligand in BLI)
T1 construct: Used coated in ELISA and biotinylated on SAX biosensors in BLI; also called purified kidney APN; porcine APN
T1 sequence: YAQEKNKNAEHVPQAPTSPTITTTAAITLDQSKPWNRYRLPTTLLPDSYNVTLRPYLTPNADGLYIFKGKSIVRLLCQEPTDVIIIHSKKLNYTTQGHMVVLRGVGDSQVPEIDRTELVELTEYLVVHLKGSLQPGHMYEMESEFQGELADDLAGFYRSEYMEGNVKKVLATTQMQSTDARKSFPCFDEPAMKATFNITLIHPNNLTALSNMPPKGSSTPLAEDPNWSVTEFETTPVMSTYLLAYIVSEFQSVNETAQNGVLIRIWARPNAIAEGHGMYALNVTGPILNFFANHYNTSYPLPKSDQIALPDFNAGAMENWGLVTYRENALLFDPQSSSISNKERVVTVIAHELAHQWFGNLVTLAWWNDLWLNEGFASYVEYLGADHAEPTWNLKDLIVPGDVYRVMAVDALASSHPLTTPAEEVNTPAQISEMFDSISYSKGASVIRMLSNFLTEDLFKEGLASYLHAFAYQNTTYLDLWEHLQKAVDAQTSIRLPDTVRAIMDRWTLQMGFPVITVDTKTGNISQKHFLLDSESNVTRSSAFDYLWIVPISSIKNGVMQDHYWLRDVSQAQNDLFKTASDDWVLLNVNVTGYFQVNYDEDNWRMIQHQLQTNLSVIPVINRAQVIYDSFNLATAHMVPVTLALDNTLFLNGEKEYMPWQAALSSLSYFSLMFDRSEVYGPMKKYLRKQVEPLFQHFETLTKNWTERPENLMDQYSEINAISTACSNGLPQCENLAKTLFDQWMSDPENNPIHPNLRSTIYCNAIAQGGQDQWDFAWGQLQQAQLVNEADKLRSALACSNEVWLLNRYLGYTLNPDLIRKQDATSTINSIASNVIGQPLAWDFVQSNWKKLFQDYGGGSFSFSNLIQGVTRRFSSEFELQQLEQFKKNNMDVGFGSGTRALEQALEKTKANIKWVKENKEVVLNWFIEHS

B1: α-APN-mIgG1 (clone IMM013), APN-specific mouse IgG1 monoclonal antibody (antibody)
heavy: QAYLQQSGAELVRSGASVKMSCKASGYTFTSYNMHWVKQTPGQGLEWIGYIYPGNGDINYNQKFKGKATLTADTSSNTAYMQISSLTSEDSAVYFCARGGVFDYWGQGTTLIVSSAKTTPPSVYPLAPGSAAQTNSMVTLGCLVKGYFPEPVTVTWNSGSLSSGVHTFPAVLQSDLYTLSSSVTVPSSTWPSETVTCNVAHPASSTKVDKKIVPRDCGCKPCICTVPEVSSVFIFPPKPKDVLTITLTPKVTCVVVDISKDDPEVQFSWFVDDVEVHTAQTQPREEQFNSTFRSVSELPIMHQDWLNGKEFKCRVNSAAFPAPIEKTISKTKGRPKAPQVYTIPPPKEQMAKDKVSLTCMITDFFPEDITVEWQWNGQPAENYKNTQPIMDTDGSYFVYSKLNVQKSNWEAGNTFTCSVLHEGLHNHHTEKSLSHSPGK
light: QIVLTQSPAIVSASPGEKVTITCSGSSSVNYMHWFQQKPGTSPKLWIYSTSNLASGVPGRFSGSGSGTSYSLTISRMEAEDAATYYCQQRTSYPYTFGGGTKLEIKRADAAPTVSIFPPSSEQLTSGGASVVCFLNNFYPKDINVKWKIDGSERQNGVLNSWTDQDSKDSTYSMSSTLTLTKDEYERHNSYTCEATHKTSTSPIVKSFNRNEC
notes: Purified from hybridoma supernatant by protein G; also called IMMO13; α-APN mAb (clone IMM013)
B2: α-APN-mIgG1-FedF fusion construct (clone IMM013 mouse IgG1 with FedF15-165 fused to the heavy chain) (other)
heavy: QAYLQQSGAELVRSGASVKMSCKASGYTFTSYNMHWVKQTPGQGLEWIGYIYPGNGDINYNQKFKGKATLTADTSSNTAYMQISSLTSEDSAVYFCARGGVFDYWGQGTTLIVSSAKTTPPSVYPLAPGSAAQTNSMVTLGCLVKGYFPEPVTVTWNSGSLSSGVHTFPAVLQSDLYTLSSSVTVPSSTWPSETVTCNVAHPASSTKVDKKIVPRDCGCKPCICTVPEVSSVFIFPPKPKDVLTITLTPKVTCVVVDISKDDPEVQFSWFVDDVEVHTAQTQPREEQFNSTFRSVSELPIMHQDWLNGKEFKCRVNSAAFPAPIEKTISKTKGRPKAPQVYTIPPPKEQMAKDKVSLTCMITDFFPEDITVEWQWNGQPAENYKNTQPIMDTDGSYFVYSKLNVQKSNWEAGNTFTCSVLHEGLHNHHTEKSLSHSPGKGGGGSGGGGSGGGGSNSSASSAQVTGTLLGTGKTNTTQMPALYTWQHQIYNVNFIPSSSGTLTCQAGTILVWKNGRETQYALECRVSIHHSSGSINESQWGQQSQVGFGTACGNKKCRFTGFEISLRIPPNAQTYPLSSGDLKGSFSLTNKEVNWSASIYVPAIAK
light: B1 light
notes: also called FedF-linked α-APN-mIgG1; aAPN-mIgG1-FedF

Assays:
[1] = target: T1, porcine kidney aminopeptidase N (APN), …; assay: BLI (Octet RED96), biotinylated porcine APN on SAX biosensor, mAb at 100 nM, 1:1 local full fit
[2] = target: T1, porcine kidney aminopeptidase N (APN), …; assay: bio-layer interferometry, biotinylated porcine APN on SAX biosensor, series of analyte concentrations (not labelled on the sheet)

Binder | Kd [1] [nM] | Kd [2] [nM]
B1 | 1.6 | 1.4
B2 |  | 5.1
